# Measured values: patent publication US20100173362A1 (published 2010)
# B1: Chimeric 2B8 / Hu2B8_Hv1-f.1 (antibody, V domains shown)
# VH: EVQLVQSGAEVKKPGATVKISCKVSGYTFTTYWMHWVQQAPGKGLEWMGEINPTNGHTNYNEKFQGRVTITADTSTDTAYMELSSLRSEDTAVYYCATNYVGSIFDYWGQGTLVTVSS
# VL: NIVMTQSPKSMSMSVGERVTLSCKASENVVSYVSWYQQKPAQSPKLLIYGASNRNTGVPDRFTGSGSATDFTLTISSVRAEDLADYHCGQSYNYPYTFGGGTRLEIKR
# B2: chimeric 2B8 (antibody, V domains shown)
# VH: QVQLQQPGAELVKPGTSVKLSCKASGYTFTTYWMHWVNQRPGQGLEWIGEINPTNGHTNYNEKFKSKATLTVDKSSSTAYMQLSSLTSEDSAVYYCARNYVGSIFDYWGQGTTLTVSS
# VL: B1 VL
# B3: Chimeric 2B8 / Hu2B8_Hv5-a.1 (antibody, V domains shown)
# VH: EVQLVQSGAEVKKPGESLRISCKGSGYSFTTYWMHWVRQMPGKGLEWMGEINPTNGHTNYNPSFQGHVTISADKSISTAYLQWSSLKASDTAMYYCARNYVGSIFDYWGQGTLVTVSS
# VL: B1 VL
# B4: Hu2B8_Kv1-39.1 / Hu2B8_Hv1-f.1 (antibody, V domains shown)
# VH: B1 VH
# VL: DIQMTQSPSSLSASVGDRVTITCKASENVVSYVSWYQQKPGKAPKLLIYGASNRNTGVPSRFSGSGSGTDFTLTISSLQPEDFATYYCGQSYNYPYTFGQGTKLEIKR
# B5: Hu2B8_Kv3-15.1 / Hu2B8_Hv1-f.1 (antibody, V domains shown)
# VH: B1 VH
# VL: EIVMTQSPATLSVSPGERATLSCKASENVVSYVSWYQQKPGQAPRLLIYGASNRNTGIPARFSGSGSGTEFTLTISSLQSEDFAVYYCGQSYNYPYTFGQGTKLEIKR
# B6: Hu2B8_Kv1-39.1 / Chimeric 2B8 (antibody, V domains shown)
# VH: B2 VH
# VL: B4 VL
# B7: Hu2B8_Kv3-15.1 / Chimeric 2B8 (antibody, V domains shown)
# VH: B2 VH
# VL: B5 VL
# B8: Hu2B8_Kv1-39.1 / Hu2B8_Hv5-a.1 (antibody, V domains shown)
# VH: B3 VH
# VL: B4 VL
# B9: Hu2B8_Kv3-15.1 / Hu2B8_Hv5-a.1 (antibody, V domains shown)
# VH: B3 VH
# VL: B5 VL
# Biological target: recombinant human HGF (R&D Systems, Catalog No. 294-HGN-025) (human, UniProt P14210 32-728)
# Assay: SPR
# recombinant human HGF (R&D Systems, Catalog No. 294-HGN-025), sequence (P14210 32-728): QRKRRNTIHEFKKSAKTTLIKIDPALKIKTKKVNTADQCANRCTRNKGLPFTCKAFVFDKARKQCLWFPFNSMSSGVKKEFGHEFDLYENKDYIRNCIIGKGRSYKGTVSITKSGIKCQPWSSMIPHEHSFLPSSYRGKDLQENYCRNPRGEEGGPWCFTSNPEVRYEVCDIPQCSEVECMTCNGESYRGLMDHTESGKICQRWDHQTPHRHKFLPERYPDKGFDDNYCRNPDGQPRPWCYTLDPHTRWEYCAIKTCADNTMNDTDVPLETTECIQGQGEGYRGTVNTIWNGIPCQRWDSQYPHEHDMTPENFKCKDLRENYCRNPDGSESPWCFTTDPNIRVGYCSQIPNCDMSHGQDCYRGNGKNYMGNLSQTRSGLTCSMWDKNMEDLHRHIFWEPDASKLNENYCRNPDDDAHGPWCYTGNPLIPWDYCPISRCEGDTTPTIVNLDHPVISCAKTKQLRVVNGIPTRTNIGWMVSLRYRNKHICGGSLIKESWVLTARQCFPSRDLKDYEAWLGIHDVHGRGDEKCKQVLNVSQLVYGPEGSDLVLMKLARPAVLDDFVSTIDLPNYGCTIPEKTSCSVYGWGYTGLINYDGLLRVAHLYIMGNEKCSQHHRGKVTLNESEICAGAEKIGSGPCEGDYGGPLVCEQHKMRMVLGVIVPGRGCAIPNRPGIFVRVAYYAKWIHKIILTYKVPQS
row,Binder,Kd [nM]
1,B1,0.662
2,B2,0.0116
3,B3,0.0044
4,B4,0.294
5,B5,0.466
6,B6,0.0136
7,B7,0.0055
8,B8,0.0147
9,B9,0.0269
